From PMC3949714 (PLoS ONE, 2014)

What was measured:
[1] = RP-HPLC retention time (read by the paper as polarity); format: physicochemical; conditions: water/acetonitrile gradient with 0.1% formic acid, MS TIC detection
Method: An Agilent binary HPLC composing of an Agilent 1100 LC pump, an Agilent 1100 well plate auto-sampler (Agilent Technologies, Santa Clara, CA, USA) and a Jupiter 5 μ (C4, 300 A, 150×2.00 mm, 5 μ) RP HPLC column (Phenomenex, Torrance, CA, USA) were used for separation. The mobile phase flow rate was 200 µl/min and the volume of injection was 20 µL. The separations were performed using a binary solvent gradient; water (Milli-Q; Millipore Corporation, Bedford, MA) which contained 0.1% v/v formic acid was used as the solvent A and acetonitrile (Merck KGaA, Darmstadt, Germany) which contained 0.1% v/v formic acid (Nuplex industries Pty Ltd. (NSW, Australia) was used as the solvent B. The chromatographic separation was achieved using the gradient shown in Table 1.
An API 3000 tandem mass spectrometer equipped with a turbo ion spray was used as the detector. Detection was performed in total ion current (TIC) mode (MS1/Q1), in positive mode, within the range 200–3000 amu. The data were acquired and processed by Analyst 1.5 software (Applied Biosystems, Foster city, CA, USA). Mass spectra were obtained using: declustering potential (DF) of 16 V, focusing potential (FP) of 120 V, Entrance potential (EP) of 10 V, and Ion spray voltage (IS) of 5000 V. Structure identity of fragments was performed using the respective mass/charge (m/z) values of each peptide metabolite. Direct flow injections were carried out using Model 11 plus Harvard Syringe pump (Harvard Apparatus Inc, Holliston, MA, USA).

[2] = Biotransformation in homogenised inflamed tissue at pH 5.5 (LC/MS, mean residence time); conditions: MES pH 5.5, 37°C, 120 min, AUMC/AUC of LC/MS peak intensity
[3] = incubation of BE 1-17, Jupiter C4 column
[4] = incubation of BE 1-17 (115 µM) in rat inflamed tissue homogenate
[5] = incubation of BE 1-31, Jupiter C4 300 A column, 200 µl/min
[6] = incubation of BE 1-31 (115 µM) in rat inflamed tissue homogenate
[7] = incubation of BE 1-11, Jupiter C4 column
[8] = incubation of BE 1-13, Jupiter C4 column
[9] = incubation of BE 1-11 (115 µM) in rat inflamed tissue homogenate
[10] = incubation of BE 1-13 (115 µM) in rat inflamed tissue homogenate

Row | Substance | RT [1, 3] [min] | MRT [2, 4] | RT [1, 5] [min] | also measured
1 | BE 1-14: beta-endorphin N-terminal fragment, residues 1-14 (YGGFMTSEKSQTPL; Beta-endorphin; UniProt P01189 237-250, looked up, fragment) | 21.13 | 13.8 |  | 
2 | BE 1-15: beta-endorphin N-terminal fragment, residues 1-15 (YGGFMTSEKSQTPLV; Beta-endorphin; UniProt P01189 237-251, looked up, fragment) | 22.33 | 8.3 | 24.2 | MRT [2, 6]: 12
3 | BE 1-16: beta-endorphin N-terminal fragment, residues 1-16 (YGGFMTSEKSQTPLVT; Beta-endorphin; UniProt P01189 237-252, looked up, fragment) | 21.38 | 7.6 | 23.2 | MRT [2, 6]: 9.8
4 | BE 2-9: des-tyrosine beta-endorphin fragment, residues 2-9 (GGFMTSEK; Beta-endorphin; UniProt P01189 238-245, looked up, fragment) | 15.87 | 21 | 18.38 | Rt [1, 7]: 15.8 min; Rt [1, 8]: 15.8 min; MRT [2, 9]: 17; MRT [2, 10]: 19.8; MRT [2, 6]: 20
5 | BE 2-11: des-tyrosine beta-endorphin fragment, residues 2-11 (GGFMTSEKSQ; Beta-endorphin; UniProt P01189 238-247, looked up, fragment) | 15.52 | 31.8 | 17.5 | Rt [1, 7]: 15.7 min; Rt [1, 8]: 15.7 min; MRT [2, 9]: 15; MRT [2, 10]: 20.2; MRT [2, 6]: 37
6 | BE 2-15: beta-endorphin fragment, residues 2-15 (GGFMTSEKSQTPLV; Beta-endorphin; UniProt P01189 238-251, looked up, fragment) | 21.33 |  |  | 
7 | BE 3-12: beta-endorphin fragment, residues 3-12 (GFMTSEKSQT; Beta-endorphin; UniProt P01189 239-248, looked up, fragment) | 20.53 |  |  | 
8 | BE 3-14: beta-endorphin fragment, residues 3-14 (GFMTSEKSQTPL; Beta-endorphin; UniProt P01189 239-250, looked up, fragment) | 20.1 |  |  | 
9 | BE 4-14: beta-endorphin fragment, residues 4-14 (FMTSEKSQTPL; Beta-endorphin; UniProt P01189 240-250, looked up, fragment) | 18.68 |  |  | 
10 | BE 4-15: beta-endorphin fragment, residues 4-15 (FMTSEKSQTPLV; Beta-endorphin; UniProt P01189 240-251, looked up, fragment) | 20.13 |  |  | 
11 | BE 4-16: beta-endorphin fragment, residues 4-16 (FMTSEKSQTPLVT; Beta-endorphin; UniProt P01189 240-252, looked up, fragment) | 19.32 |  |  | 
12 | BE 6-14: beta-endorphin fragment, residues 6-14 (TSEKSQTPL; Beta-endorphin; UniProt P01189 242-250, looked up, fragment) | 14.62 |  |  | 
13 | BE 7-14: beta-endorphin fragment, residues 7-14 (SEKSQTPL; Beta-endorphin; UniProt P01189 243-250, looked up, fragment) | 14.92 |  |  | 
14 | BE 7-16: beta-endorphin fragment, residues 7-16 (SEKSQTPLVT; Beta-endorphin; UniProt P01189 243-252, looked up, fragment) | 16 |  |  | 
15 | BE 8-14: beta-endorphin fragment, residues 8-14 (EKSQTPL; Beta-endorphin; UniProt P01189 244-250, looked up, fragment) | 16.27 |  |  | 
16 | BE 29-31: beta-endorphin fragment, residues 29-31 (KGE; Beta-endorphin; UniProt P01189 265-267, looked up, fragment) |  |  | 5.4 | 
